Biological target: human CrkII (1–304) (human) (UniProt P46108)
Assay: NMR titration

Chain of human CrkII (1–304) (human) (P46108 whole entry): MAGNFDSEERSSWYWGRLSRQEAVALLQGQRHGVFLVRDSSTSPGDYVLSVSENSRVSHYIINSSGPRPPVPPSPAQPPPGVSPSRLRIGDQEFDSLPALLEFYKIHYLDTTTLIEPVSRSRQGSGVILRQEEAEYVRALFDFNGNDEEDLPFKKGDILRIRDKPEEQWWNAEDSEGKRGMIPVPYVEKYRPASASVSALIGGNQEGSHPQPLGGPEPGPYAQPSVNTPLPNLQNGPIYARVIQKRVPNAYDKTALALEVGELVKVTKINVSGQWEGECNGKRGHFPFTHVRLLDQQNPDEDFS

Substance: human CypA (1–165) (from UniProt P62937 1-165) (enzyme; other documents disagree on this pair)
- Kd: 15 µM
